Laboratory results published in US20210290602A1.

Molecular target: SNAP-25 (endogenous, human induced neurons) (human) (UniProt P60880)
Assay: cell-based or functional assay

Sequence of SNAP-25 (endogenous, human induced neurons) (human) (P60880 whole entry): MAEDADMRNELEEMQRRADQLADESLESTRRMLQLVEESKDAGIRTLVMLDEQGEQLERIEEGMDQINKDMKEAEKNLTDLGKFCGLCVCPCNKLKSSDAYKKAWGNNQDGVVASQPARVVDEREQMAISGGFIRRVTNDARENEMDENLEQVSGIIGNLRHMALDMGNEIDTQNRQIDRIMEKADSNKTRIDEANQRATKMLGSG

SNAP-25 degradation half-life, cycloheximide chase in iNs: 12.5 h
SNAP-25 half-life after L1 or Dfx treatment against control, cycloheximide chase in ANCL iNs: 2 fold
Substance: endogenous CSPα of ANCL patient-derived induced neurons (iNs), which co-express the CSPα^WT and CSPα^L116Δ alleles (from UniProt Q9H3Z4 1-198; Q9H3Z4 1-198)
